The record followed here is paper PMC3124419, “Elucidating the domain architecture and functions of non-core RAG1: The capacity of a non-core zinc-binding domain to function in nuclear import and nucleic acid binding” (BMC Biochemistry, 2011).

Broadly, the stoichiometry N is the number of molecules, sites or subunits per partner or assembly. As a reminder, the Kd is the constant that tells how readily two partners part at equilibrium.

Series [1] concerns the molecule itself. Description: SEC-MALS; MALLS-SEC of MBP fusion proteins, 20 mL Superdex 200, starting concentration 3-10 μM, GFB buffer (20 mM Tris pH 8.0, 0.2 M NaCl, 50 μM ZnCl2, 5 mM βME). For orientation: SEC sorts molecules by how far they enter the pores of the column.
Series [2] has as its target T1, MBP-CND (RAG1 central non-core domain) (murine, UniProt P15919 87-217).
T1 sequence: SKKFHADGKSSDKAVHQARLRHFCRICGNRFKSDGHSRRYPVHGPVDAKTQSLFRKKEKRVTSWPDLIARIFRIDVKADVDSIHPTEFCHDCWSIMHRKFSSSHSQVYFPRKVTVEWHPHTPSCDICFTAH
Kind of series: EMSA; 5 mM Mg2+; EMSA: 10 mM Tris pH 8.0, 5 mM MgCl2, 2 mM DTT, 6% glycerol, 100 mM NaCl, 25 C, 1 nM 32P-DNA; 3.5/8% discontinuous nondenaturing gel. The note with it: protein: recombinant; tags: N-terminal MBP; label: 5' 32P; hairpin, fully complementary. (In general: A gel shift assay detects complexes by their altered migration in electrophoresis.)

The target in another series is T2, MBP-CND+bZDD (murine, UniProt P15919 87-380).
T2 sequence: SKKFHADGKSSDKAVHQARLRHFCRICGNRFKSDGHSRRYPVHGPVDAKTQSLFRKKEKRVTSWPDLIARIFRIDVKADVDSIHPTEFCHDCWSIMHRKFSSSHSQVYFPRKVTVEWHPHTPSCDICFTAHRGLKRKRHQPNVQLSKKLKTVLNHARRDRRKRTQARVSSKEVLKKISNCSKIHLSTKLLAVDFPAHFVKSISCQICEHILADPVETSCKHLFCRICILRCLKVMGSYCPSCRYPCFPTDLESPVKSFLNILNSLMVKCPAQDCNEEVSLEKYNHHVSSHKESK
Described as above. The note with it: protein: recombinant; tags: N-terminal MBP; chain copies: 2; label: 5' 32P; hairpin, fully complementary.

The target of series [3] is T1, MBP-CND (RAG1 central non-core domain). Description: EMSA; 5 mM Mg2+; range covers EMSA and anisotropy; EMSA: 10 mM Tris pH 8.0, 5 mM MgCl2, 2 mM DTT, 6% glycerol, 100 mM NaCl, 25 C, 1 nM 32P-DNA; 3.5/8% discontinuous nondenaturing gel. The note with it: protein: recombinant; tags: N-terminal MBP; blunt.
In another series the target is T3, MBP-bZDD (murine, UniProt P15919 218-380).
T3 sequence: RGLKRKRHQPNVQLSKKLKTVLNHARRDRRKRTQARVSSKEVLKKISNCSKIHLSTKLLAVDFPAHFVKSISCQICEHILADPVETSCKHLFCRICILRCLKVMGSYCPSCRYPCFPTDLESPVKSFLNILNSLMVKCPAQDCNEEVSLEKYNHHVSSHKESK
Description: EMSA; 5 mM Mg2+; EMSA: 10 mM Tris pH 8.0, 5 mM MgCl2, 2 mM DTT, 6% glycerol, 100 mM NaCl, 25 C, 1 nM 32P-DNA; 3.5/8% discontinuous nondenaturing gel. The note with it: protein: recombinant; tags: N-terminal MBP; chain copies: 2; blunt.

Series [4] concerns the target T1, MBP-CND (RAG1 central non-core domain). Description: fluorescence anisotropy; range covers EMSA and anisotropy; EMSA: 10 mM Tris pH 8.0, 5 mM MgCl2, 2 mM DTT, 6% glycerol, 100 mM NaCl, 25 C, 1 nM 32P-DNA; 3.5/8% discontinuous nondenaturing gel. The note with it: protein: recombinant; tags: N-terminal MBP; blunt. On the technique in general: Fluorescence polarisation rises when a labelled molecule tumbles more slowly, as on binding a larger partner.

The target is the same in series [5]. Description: competition; 1.5 uM MBP-CND, 1 nM labeled WT 12-RSS; EMSA: 10 mM Tris pH 8.0, 5 mM MgCl2, 2 mM DTT, 6% glycerol, 100 mM NaCl, 25 C, 1 nM 32P-DNA; 3.5/8% discontinuous nondenaturing gel. The note with it: protein: recombinant; tags: N-terminal MBP; blunt.

B1: MBP-bZDD (domain or fragment, murine, UniProt P15919 218-380, looked up)
chain: RGLKRKRHQPNVQLSKKLKTVLNHARRDRRKRTQARVSSKEVLKKISNCSKIHLSTKLLAVDFPAHFVKSISCQICEHILADPVETSCKHLFCRICILRCLKVMGSYCPSCRYPCFPTDLESPVKSFLNILNSLMVKCPAQDCNEEVSLEKYNHHVSSHKESK
notes: RAG1, murine, residues 218-380 (basic region plus zinc dimerization domain, ZDD 265-380); Four zinc ions per monomer; Predicted dimeric mass 123,634 Da; also called MBP-RAG1(218-380); basic-zinc dimerization domain fused to MBP; source: E. coli BL21, purified (amylose resin, SEC); not shown: MBP, N-terminal, kept
As to B1, the “stoichiometry N” value in series [1] worked out at 2. For GATATGGCTCGTCTTATAAGACGAGCCATATC (structured_DNA) [32 nt hairpin coding flank], the binding result (in series [2]; with MBP-CND+bZDD) was “binds” in each case.

B2: WT 12-RSS (dsDNA)
DNA 1: GATATGGCTCGTCTTACACAGTGATATAGACCTTAACAAAAACCTCCAATCGAGCGGAG
DNA 2: CTCCGCTCGATTGGAGGTTTTTGTTAAGGTCTATATCACTGTGTAAGACGAGCCATATC
As for B2, the Kd was 1550 nM in series [3] and about 1730 nM with MBP-bZDD.

B3: WT 12-RSS, Oregon Green (dsDNA)
DNA 1: GATATGGCTCGTCTTACACAGTGATATAGACCTTAACAAAAACCTCCAATCGAGCGGAG
DNA 2: CTCCGCTCGATTGGAGGTTTTTGTTAAGGTCTATATCACTGTGTAAGACGAGCCATATC
Turning to B3, in series [4], the Kd is 1550 nM.

B4: mutant heptamer (MH) 12-RSS (dsDNA)
DNA 1: GATATGGCTCGTCTTAGAGAAGCATATAGACCTTAACAAAAACCTCCAATCGAGCGGAG
DNA 2: CTCCGCTCGATTGGAGGTTTTTGTTAAGGTCTATATGCTTCTCTAAGACGAGCCATATC
For the molecule B4, the binding result in series [5] is on record as “binds”.

B5: mutant nonamer (MN) 12-RSS (dsDNA)
DNA 1: GATATGGCTCGTCTTACACAGTGATATAGACCTTAAGGCTCTGATCCAATCGAGCGGAG
DNA 2: CTCCGCTCGATTGGATCAGAGCCTTAAGGTCTATATCACTGTGTAAGACGAGCCATATC
Regarding B5, the binding result in series [5] is “binds”.
